Laboratory results taken from patent EP4680727A2 (dated 2026).

How the values were obtained:
[1] = target: T1, murine CD8a (mouse, UniProt P01731 28-247); assay: cell-based or functional assay
[2] = target: T2, Ad5FDgT fiber (Human Adenovirus 5 fiber with DogTag inserted at the HI loop domain of the fiber knob) (Human Adenovirus 5); assay: SDS-PAGE (complete shift of the fiber-DogTag band) and western blot against the fiber tail, purified Ad-Ab complexes
T2 chain: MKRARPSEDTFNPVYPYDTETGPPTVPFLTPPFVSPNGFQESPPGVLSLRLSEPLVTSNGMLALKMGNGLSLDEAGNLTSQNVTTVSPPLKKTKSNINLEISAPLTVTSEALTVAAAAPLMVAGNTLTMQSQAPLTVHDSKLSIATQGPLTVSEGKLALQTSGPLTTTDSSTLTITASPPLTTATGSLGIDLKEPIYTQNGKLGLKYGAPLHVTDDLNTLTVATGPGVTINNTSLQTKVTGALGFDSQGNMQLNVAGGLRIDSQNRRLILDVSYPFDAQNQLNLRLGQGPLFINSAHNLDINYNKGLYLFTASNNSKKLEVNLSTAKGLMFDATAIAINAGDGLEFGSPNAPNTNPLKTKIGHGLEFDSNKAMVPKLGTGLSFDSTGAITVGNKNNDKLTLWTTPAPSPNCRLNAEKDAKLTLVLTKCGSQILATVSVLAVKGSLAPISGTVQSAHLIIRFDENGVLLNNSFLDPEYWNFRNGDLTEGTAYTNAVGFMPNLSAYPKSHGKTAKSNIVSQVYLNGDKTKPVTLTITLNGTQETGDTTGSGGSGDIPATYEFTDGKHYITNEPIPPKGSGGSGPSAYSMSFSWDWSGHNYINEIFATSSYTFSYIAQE

[3] = target: T3, murine CD19 (mouse, UniProt P25918 19-547); assay: cell-based or functional assay
T3 sequence: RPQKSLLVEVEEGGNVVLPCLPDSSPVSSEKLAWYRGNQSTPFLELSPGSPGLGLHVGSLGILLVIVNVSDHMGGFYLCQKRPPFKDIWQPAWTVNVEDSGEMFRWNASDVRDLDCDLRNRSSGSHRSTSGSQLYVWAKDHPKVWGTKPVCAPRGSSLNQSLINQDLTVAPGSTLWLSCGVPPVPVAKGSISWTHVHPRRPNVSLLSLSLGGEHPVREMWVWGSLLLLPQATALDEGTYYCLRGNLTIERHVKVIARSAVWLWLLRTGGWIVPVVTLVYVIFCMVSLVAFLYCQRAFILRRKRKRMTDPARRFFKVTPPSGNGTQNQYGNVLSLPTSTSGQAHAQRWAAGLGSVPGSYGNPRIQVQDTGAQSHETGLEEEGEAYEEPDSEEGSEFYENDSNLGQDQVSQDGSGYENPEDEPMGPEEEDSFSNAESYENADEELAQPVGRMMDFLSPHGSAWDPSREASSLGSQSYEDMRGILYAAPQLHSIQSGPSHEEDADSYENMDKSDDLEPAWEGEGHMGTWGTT

[4] = target: T2, Ad5FDgT fiber (Human Adenovirus 5 fiber …); assay: covalent DogCatcher/DogTag conjugation to the virus capsid
[5] = target: T1, murine CD8a; assay: flow cytometry on murine splenocytes, gated on CD8+, detected with anti-His Tag antibody
[6] = target: T2, Ad5FDgT fiber (Human Adenovirus 5 fiber …); assay: SDS-PAGE gel shift of the fiber band after co-incubation at room temperature

T1 sequence (P01731 28-247): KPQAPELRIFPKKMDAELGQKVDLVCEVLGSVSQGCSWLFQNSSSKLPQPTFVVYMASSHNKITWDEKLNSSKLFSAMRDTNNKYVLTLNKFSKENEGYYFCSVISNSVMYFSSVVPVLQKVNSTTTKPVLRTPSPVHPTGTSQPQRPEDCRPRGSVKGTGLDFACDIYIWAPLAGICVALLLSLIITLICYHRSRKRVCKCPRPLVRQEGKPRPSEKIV

B1: YTS169DgC (YTS169 anti-murine CD8a scFv fused to DogCatcher; IGHV1-46 signal sequence-YTS169 scFv-(G4S)3-DgC-6xHis) (scFv)
scFv: EVKLQESGGGLVQPGRSLKLSCAASGFNFNDYWMGWVRQAPGKGLEWIGEINKDSSTINYTPSLKDKFTISRDNAQNTLYLQMSKLGSEDTAIYYCARARGMMVLIIPHYFDYWGQGVMVTVSSGGGGSGGGGSGGGGSDIVLTQSPAMAMSPGERITISCRASESVSTRMHWYQQKPGQQPKLLIYGASNLESGVPARFSGSGSGTDFTLTIDPVEANDTATYFCQQSWYDPWTFGGGTKLELKGGGGSGGGGSGGGGSAMKLGEIEFIKVDKTDKKPLRGAVFSLQKQHPDYPDIYGAIDQNGTYQDVRTGEDGKLTFTNLSDGKYRLIENSEPPGYKPVQNKPIVSFRIVDGEVRDVTSIVPQGSSGSHHHHHH
notes: also called YTS169 scFv-DogCatcher; anti-mCD8 YTS169
B1 was tested, and the “gene expression in CD8a+ T cells in vivo” value [1] was roughly 2 fold and the binding result [2] was “binds”.

B2: 1D3DgC (1D3 anti-murine CD19 scFv fused to DogCatcher; IL-2 signal sequence-1D3 scFv-(G4S)3-DgC-6xHis) (scFv)
scFv: DIQMTQSPASLSTSLGETVTIQCQASEDIYSGLAWYQQKPGKSPQLLIYGASDLQDGVPSRFSGSGSGTQYSLKITSMQTEDEGVYFCQQGLTYPRTFGGGTKLELKGGGGSGGGGSGGGGSEVQLQQSGAELVRPGTSVKLSCKVSGDTITFYYMHFVKQRPGQGLEWIGRIDPEDESTKYSEKFKNKATLTADTSSNTAYLKLSSLTSEDTATYFCIYGGYYFDYWGQGVMVTVSSGGGGSGGGGSGGGGSAMKLGEIEFIKVDKTDKKPLRGAVFSLQKQHPDYPDIYGAIDQNGTYQDVRTGEDGKLTFTNLSDGKYRLIENSEPPGYKPVQNKPIVSFRIVDGEVRDVTSIVPQGSSGSHHHHHH
notes: also called lD3DgC; 1D3 scFv-DogCatcher
B2 was tested, and the “gene expression in B cells in vivo, against the parent vector” value [3] was roughly 2 fold and the binding result [4] was “binds”.

B3: 2.43DgC (2.43 scFv fused to DogCatcher; IGHV1-46 signal sequence-2.43 scFv-(G4S)3-DgC-6xHis) (scFv)
scFv: EVQLVESGGGLVQPGRSLKLSCAASGFTFSNYYMAWVRQAPTKGLEWVAYINTGGGTTYYRDSVKGRFTISRDDAKSTLYLQMDSLRSEDTATYYCTTAIGYYFDYWGQGVMVTVSSGGGGSGGGGSGGGGSDIQLTQSPASLSASLGETVSIECLASEDIYSYLAWYQQKPGKSPQVLIYAANRLQDGVPSRFSGSGSGTQYSLKISGMQPEDEGDYFCLQGSKFPYTFGAGTKLELKGGGGSGGGGSGGGGSAMKLGEIEFIKVDKTDKKPLRGAVFSLQKQHPDYPDIYGAIDQNGTYQDVRTGEDGKLTFTNLSDGKYRLIENSEPPGYKPVQNKPIVSFRIVDGEVRDVTSIVPQGSSGSHHHHHH
notes: also called 2.43 scFv-DogCatcher
B3: binds [5].

B4: FMC63 scFv-DogCatcher fusion (anti-human CD19; IL-2 signal sequence-FMC63 scFv-(G4S)3-DgC-6xHis) (scFv)
scFv: DIQMTQTTSSLSASLGDRVTISCRASQDISKYLNWYQQKPDGTVKLLIYHTSRLHSGVPSRFSGSGSGTDYSLTISNLEQEDIATYFCQQGNTLPYTFGGGTKLEITGGGGSGGGGSGGGGSEVKLQESGPGLVAPSQSLSVTCTVSGVSLPDYGVSWIRQPPRKGLEWLGVIWGSETTYYNSALKSRLTIIKDNSKSQVFLKMNSLQTDDTAIYYCAKHYYYGGSYAMDYWGQGTSVTVSSGGGGSGGGGSGGGGSAMKLGEIEFIKVDKTDKKPLRGAVFSLQKQHPDYPDIYGAIDQNGTYQDVRTGEDGKLTFTNLSDGKYRLIENSEPPGYKPVQNKPIVSFRIVDGEVRDVTSIVPQGSSGSHHHHHH
notes: also called FMC163DgC (plasmid name as printed)
B4: binds [4].

B5: DogCatcher (bacterially produced, 6xHis-TEV-DogCatcher) (other)
chain: MSYYHHHHHHDYDIPTTENLYFQGAMKLGEIEFIKVDKTDKKPLRGAVFSLQKQHPDYPDIYGAIDQNGTYQDVRTGEDGKLTFTNLSDGKYRLIENSEPPGYKPVQNKPIVSFRIVDGEVRDVTSIVPQ
notes: also called DgC; pDEST14-DogCatcher product
B5: binds [6].

B6: 18B12DgC (18B12 anti-murine CD20 scFv fused to DogCatcher; IL-2 signal sequence-18B12 scFV-(G4S)3-DgC-6xHis) (scFv)
scFv: QVQLQQPGAELVRPGTSVKLSCKASGYTFTSYWMHWIKQRPGQGLEWIGVIDPSDNYTKYNQKFKGKATLTVDTSSSTAYMQLSSLTSEDSAVYFCAREGYYGSSPWFAYWGQGTLVTVSSGGGGSGGGGSGGGGSQIVMSQSPAILSASPGEKVTMTCRARSSVSYIHWYQQKPGSSPKPWIYATSNLASGVPGRFSGSGSGTSYSLTITRVEAEDAATYYCQQWSSKPPTFGGGTKLEIKGGGGSGGGGSGGGGSAMKLGEIEFIKVDKTDKKPLRGAVFSLQKQHPDYPDIYGAIDQNGTYQDVRTGEDGKLTFTNLSDGKYRLIENSEPPGYKPVQNKPIVSFRIVDGEVRDVTSIVPQGSSGSHHHHHH
notes: also called 18B12 scFv-DogCatcher
B6: binds [4].
